Reference: the supplement of paper PMC10126150
± gives the standard deviation of the averaged measurements.

Test system: ATP
Experiment: switch fluorescence ratio, 500 uM ATP over buffer (Cy3 cluster intensity, sum of 5 cycles each) (fold (ratio)); higher = stronger signal-on switching upon ATP binding; sequences stand for … in TCGTCGGCAGCGTCAGATGTGTATAAGAGACAGTTTTTTTTTTTTTTTTTTTTTTTTT…TC
Details: aptamer strand: ATP DNA aptamer (quencher-CACCTGGGGGAGTATTGCGGAGGAAGG + anchor), 100 nM annealed; ATP concentration: 500 uM
Summary of the method: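 Clusters with intensities outside 100-1000 RFU were excluded. The remaining Cy3-labelled switching-strand clusters on a modified Illumina MiSeq flow-cell had been annealed to 100 nM quencher-labelled ATP aptamer and imaged in selection buffer, then after 15 min with 500 uM ATP at 22 °C, for five cycles separated by NaOH stripping and re-annealing. The fluorescence ratio, averaged per switch-domain sequence, is each cluster's summed target-cycle Cy3 intensity over its summed buffer-cycle Cy3 intensity.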
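Also: ATP exposure 15 min at 22 °C before imaging.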

Row | Sequence | switch fluorescence ratio
1 | GCTTTAGAGG | 1.004 ± 0.0053
2 | GCTTTATTGC | 1.01 ± 0.014
3 | GCTTTCATTT | 1.013 ± 0.0049
4 | GCTTTCCCTT | 1.022 ± 0.01
5 | GCTTTCGATG | 1.02 ± 0.02
6 | GCTTTCTCGG | 1.08 ± 0.048
7 | GCTTTGATTT | 1.02 ± 0.022
8 | GCTTTGGAAG | 0.985 ± 0.034
9 | GCTTTGGGAC | 1.25 ± 0.28
10 | GCTTTGTACG | 1.042 ± 0.0014
11 | GCTTTTAAGT | 0.99809 ± 0.00068
12 | GCTTTTAGCC | 0.991 ± 0.043
13 | GCTTTTCGTA | 0.9995 ± 0.0064
14 | GCTTTTGTTT | 1.04 ± 0.013
15 | GCTTTTTCTT | 1.018 ± 0.004
16 | GCTTTTTTTT | 1.01 ± 0.019
17 | GGAAAAAGGC | 0.9838 ± 0.0058
18 | GGAAAAAGTG | 0.991 ± 0.014
19 | GGAAAAGAGA | 1.01 ± 0.017
20 | GGAAACAGGG | 0.964 ± 0.02
21 | GGAAACGATT | 1.01 ± 0.035
22 | GGAAACTAGG | 1.016 ± 0.003

Row | Sequence | switch fluorescence ratio
23 | GGAAAGGGAT | 0.991 ± 0.012
24 | GGAAAGTTGG | 0.996 ± 0.012
25 | GGAAATAAAA | 1.22 ± 0.24
26 | GGAAATGAGT | 1.02 ± 0.016
27 | GGAAATGGGT | 1.05 ± 0.036
28 | GGAAATGTCG | 0.918 ± 0.078
29 | GGAAATTCAT | 1.36 ± 0.54
30 | GGAACAGGGT | 0.934 ± 0.072
31 | GGAACGGGGA | 1.01 ± 0.017
32 | GGAACGGGTC | 1.02 ± 0.024
33 | GGAACTGCTG | 1.04 ± 0.029
34 | GGAACTTTTA | 1.01 ± 0.023
35 | GGAAGAATGG | 0.985 ± 0.024
36 | GGAAGATGGG | 0.99 ± 0.021
37 | GGAAGGGTTG | 1 ± 0.034
38 | GGAAGGTGGG | 1.15 ± 0.25
39 | GGAAGGTTTT | 0.97669 ± 0.00029
40 | GGAAGTAGAT | 1.01 ± 0.028
41 | GGAAGTGGCA | 1.01 ± 0.041
42 | GGAATAATGT | 1.03 ± 0.061
43 | GGAATAGATT | 0.99048 ± 0.00037
44 | GGAATAGGCT | 0.967 ± 0.059

Row | Sequence | switch fluorescence ratio
45 | GGAATCCGGC | 1.06 ± 0.02
46 | GGAATGTGAA | 0.978 ± 0.019
47 | GGAATGTGGG | 0.984 ± 0.042
48 | GGAATGTTGC | 0.9733 ± 0.0039
49 | GGAATTATTG | 1.08 ± 0.15
50 | GGAATTTCGG | 1.17 ± 0.23
51 | GGAATTTGGA | 0.983 ± 0.057
52 | GGAATTTGGG | 0.99 ± 0.021
53 | GGACAATGAG | 0.998 ± 0.035
54 | GGACACTCTG | 0.977 ± 0.013
55 | GGACAGGTTT | 0.9784 ± 0.0034
56 | GGACAGTTGT | 1.01 ± 0.057
57 | GGACCAGGGA | 1 ± 0.046
58 | GGACCGGCTA | 0.998 ± 0.02
59 | GGACGACCGG | 1.02 ± 0.027
60 | GGACGGCTGC | 1.02 ± 0.029
61 | GGACGGGGAC | 1.12 ± 0.015
62 | GGACGGGTGC | 1.1 ± 0.088
63 | GGACTACCTG | 1.01 ± 0.022
64 | GGACTAGGTT | 1.006 ± 0.0033
65 | GGACTCTAGG | 0.979 ± 0.027
66 | GGACTGAGGA | 1.002 ± 0.01

Row | Sequence | switch fluorescence ratio
67 | GGACTGTGGG | 1.02 ± 0.044
68 | GGACTGTTTG | 1.01 ± 0.041
69 | GGACTTAATG | 1.02 ± 0.016
70 | GGACTTGGTT | 1.01 ± 0.034
71 | GGAGAATATT | 1.02 ± 0.059
72 | GGAGACGGGT | 1.02 ± 0.036
73 | GGAGAGAAGC | 1.02 ± 0.076
74 | GGAGAGATTT | 1.01 ± 0.034
75 | GGAGAGGTTG | 0.971 ± 0.021
76 | GGAGAGTCGG | 0.977 ± 0.035
77 | GGAGATATTA | 1.01 ± 0.026
78 | GGAGCAAAGG | 2.63 ± 0.1
79 | GGAGCGAGGG | 1.11 ± 0.061
80 | GGAGGAAGAT | 1.047 ± 0.0093
81 | GGAGGACTCG | 0.982 ± 0.05
82 | GGAGGAGAAT | 1 ± 0.014
83 | GGAGGCCCCA | 0.996 ± 0.033
84 | GGAGGCGTTC | 0.995 ± 0.013
85 | GGAGGCTGAG | 0.993 ± 0.011
